Test results as given in the supplement of paper PMC12764529.
± gives the half width of the 95% confidence interval.

Experiments:
[1] = folding stability dG unfold from trypsin proteolysis; higher = more stable
Procedure, shortened: (§1)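 Bayesian fitting of sequencing counts gave K50 for each design. Unfolding free energy followed by setting this against a sequence-predicted unfolded-state K50 and a shared folded-state K50, either per protease or with trypsin and chymotrypsin combined. The designs, under 80 residues and lacking cysteine, were digested in a PA-tagged cDNA display format at 11 threefold-diluted protease concentrations and without protease, and only those with AlphaFold2 dimer inter-PAE above 15 were kept.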

[2] = folding stability dG unfold (combined trypsin and chymotrypsin); higher = more stable
Procedure, shortened: as §1

[3] = folding stability dG unfold from chymotrypsin proteolysis; higher = more stable
Procedure, shortened: as §1

Sequence	folding stability dG unfold [1]	folding stability dG unfold [2]	folding stability dG unfold [3]
SMTLTLEDGKLTLTVTETRTTVERDAADPGKWTTRTETRTVTLTLPLEDLEALKKLLEALPPGARVELVPSA [r9_476_TrROS_Hall]	13.5 ± 0.377 kJ/mol	16.3 ± 1.21 kJ/mol	20.5 ± 1.09 kJ/mol
SAGGSAGGSAGIDPPDIKLRVESELGPGPVRRLLVYLEGPGELVLVDVPADGSVSVSIFPSAGGSAGGSAGG [r11_55_TrMRF]	11.9 ± 0.753 kJ/mol	12.1 ± 0.962 kJ/mol	12.1 ± 1.17 kJ/mol
SAGGSAGGSAGGMKVIPFESLEEAREYIKANPDENVLLEFPDALLELTKPDDIKKIEKKPSAGGSAGGSAGG [r7_532_JUSTAS]	-0.385 ± 0.502 kJ/mol	1.17 ± 0.351 kJ/mol	1.51 ± 0.502 kJ/mol
SAGMTIVVEVPKKDITPEELAKKLEERFGLKVVEIKVEEVEEDKVRVTIRFEETGETLELTAEEIKELLSAG [r5_550_TrROS_Hall]	19.3 ± 1.42 kJ/mol	17.5 ± 0.669 kJ/mol	15.9 ± 0.711 kJ/mol
SAGMKKVKIETTEFREFEGGEREIVMKVYKPDGSEVATVVLPFPPDLSEEEMRERAEAEAKKLAEELGLSAG [r5_697_JUSTAS]	2.43 ± 0.393 kJ/mol	2.66 ± 0.879 kJ/mol	2.42 ± 0.711 kJ/mol
SAGGSAPFPIKISTIRYPDGYIRMEIWIPPDAPIKIKFPNGFEMEVEPVPNGYYRITMYFRIPKEDSAGGSA [r15_523_TrROS]	15.8 ± 0.393 kJ/mol	18.9 ± 0.628 kJ/mol	20 ± 0.46 kJ/mol
SAGSPETVTLPLTVTLPPGVPLSQIEAVLKKNGFTELEITASPTPDGTLRYAIDATMPVSVVEKLIKALSAG [r5_376_JUSTAS]	7.54 ± 0.146 kJ/mol	8.71 ± 0.247 kJ/mol	9.36 ± 0.176 kJ/mol
SAGGSKTVELEIEIDGKLIKIRVEENENGELTVRIEIYDKNGKKVKEIEIKVKSLEEALKALEKLLSAGGSA [r2_82_TrROS_Hall]	13.4 ± 0.502 kJ/mol	13.5 ± 0.502 kJ/mol	13.5 ± 0.502 kJ/mol
SAGGSAGGSAGMKVTVTITYPGGKVTTLDGDPEEVKAALPSSLTDVKITVTDPATGKVAASAGGSAGGSAGG [r11_353_JUSTAS]	-0.89 ± 0.251 kJ/mol	2.66 ± 0.502 kJ/mol	3.51 ± 0.134 kJ/mol
SAGGSAGGSAGLTKPVEVEVEEDGTVTIKTLSIVPVDDGYELHEETTEIPLSPEEIAALQSAGGSAGGSAGG [r17_415_JUSTAS]	2.11 ± 0.146 kJ/mol	1.37 ± 0.711 kJ/mol	-0.661 ± 1.38 kJ/mol
SAGGSAGGGFVTIEVEITEVVGKTKDEEGKPHPGDPNDPSGYVKLPPFPVKVPSSPEEYAALLSSAGGSAGG [r6_219_JUSTAS]	2.31 ± 0.318 kJ/mol	1.26 ± 0.669 kJ/mol	-1.3 ± 2.59 kJ/mol
SAKYKIIEAKPGKNVVTITVEYTLPNGEKLTKPIPINAINPVIVEVSEDSITIYDPNNGKLITFPAEKLSAG [r14_947_TrMRF]	8.77 ± 0.502 kJ/mol	10.4 ± 0.502 kJ/mol	12 ± 0.155 kJ/mol
SAGGSAGGSAGDWIKFEYTFKWNFFDPDGDLLMNMTVRVTIEIPIPPVPKPVKPSPNDDNSAGGSAGGSAGG [r17_325_TrROS]	14.7 ± 0.544 kJ/mol	22.3 ± 0.92 kJ/mol	22.6 ± 0.628 kJ/mol
SAGELKPGQIVVRTIEIDLPEEDEELREAIERGELIELELEDGSRVLMRVERKDGKLRITEVVILPRPESAG [r5_223_TrROS_Hall]	6.93 ± 0.18 kJ/mol	11.4 ± 0.259 kJ/mol	13.22 ± 0.121 kJ/mol
SAGGEKIKLKVVIKVPKELKNLSKEEIEELLKKKLGPNYKITKVEIKVEKNENGEEYLVVEVEIEKESAGGS [r16_408_TrROS_Hall]	15.2 ± 0.879 kJ/mol	15 ± 0.962 kJ/mol	14.1 ± 0.544 kJ/mol
SAGGSAGGMTIEVTFPDGTKLTITLENDGPDTLLATAEVEAPRAGGPSIPKEVAAKLAEELLASSAGGSAGG [r6_234_TrMRF]	4.96 ± 0.255 kJ/mol	5.69 ± 0.502 kJ/mol	6.79 ± 0.339 kJ/mol
SADPLSSILSQALSVEFDPETGKVTITTKDKSIVEKALEEGAENATLTESEDDIYTATIDLPPLPEGVLSAG [r14_115_TrMRF]	2.41 ± 0.502 kJ/mol	0.501 ± 1.63 kJ/mol	-0.647 ± 0.356 kJ/mol
SMVTVDEKEDPNSDNKIYTVSLPENGEDVITITKAPDGTTTVTLHYPDGSTTTKTFPGNTPVTEAIKLLLSA [r9_346_JUSTAS]	9.35 ± 0.502 kJ/mol	7.27 ± 0.628 kJ/mol	5.83 ± 0.347 kJ/mol
SGMDTVTPTTSTTQYFVEPNPEPVLSISTTTDTTTDPANPGVVTVTTTTTITDPRTGTTTTTPTTTTVPASA [r9_342_JUSTAS]	0.595 ± 0.0795 kJ/mol	-0.61 ± 0.753 kJ/mol	-2.36 ± 0.586 kJ/mol
ENYVAIEITMEMPNPDGMEMKFDLKIIKLDPDDGKFAIEMSMEMENPNGKPYRHPMWFVIPADELKEFLEAS [r1_371_TrROS]	10.7 ± 0.92 kJ/mol	14.8 ± 1.17 kJ/mol	17.2 ± 0.502 kJ/mol
SMKIPGMSAKEKLRKAIEALLEEAEKKGIKEITIKIYNKKTKKPIKEIKFKSKEELLKKIEEGDEVEIEFSA [r9_718_TrROS_Hall]	8.77 ± 0.188 kJ/mol	7.65 ± 0.544 kJ/mol	7.17 ± 0.255 kJ/mol
